Key:
HeLa Kyoto [1] = test: solubility in G1/S (NP-40 vs SDS abundance) (log2 ratio); higher = more soluble; settings: cell cycle stage: G1/S
HeLa Kyoto [2] = test: solubility change mitosis vs G1/S (difference of NP-40 vs SDS log2 ratios) (log2 ratio difference); higher = more soluble in mitosis
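Throughout, for solubility change mitosis vs G1/S (difference of NP-40 vs SDS log2 ratios): synchronized HeLa Kyoto cells (double thymidine block for G1/S, nocodazole release for mitosis), protein amounts in NP-40 versus SDS lysates quantified by mass spectrometry, three biological replicates.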
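Throughout, for solubility in G1/S (NP-40 vs SDS abundance): HeLa Kyoto cells arrested at G1/S by double thymidine block, proteins quantified by TMT10plex mass spectrometry in mild NP-40 versus SDS extracts, three biological replicates.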

Sequence	solubility in G1/S (log2) (HeLa Kyoto [1])	solubility change mitosis (log2) (HeLa Kyoto [2])
MPAIAVLAAAAAAWCFLQVESRHLDALAGGAGPNHGNFLDNDQWLSTVSQYDRDKYWNRFRDDDYFRNWNPNKPFDQALDPSKDPCLKVKCSPHKVCVTQDYQTALCVSRKHLLPRQKKGNVAQKHWVGPSNLVKCKPCPVAQSAMVCGSDGHSYTSKCKLEFHACSTGKSLATLCDGPCPCLPEPEPPKHKAERSACTDKELRNLASRLKDWFGALHEDANRVIKPTSSNTAQGRFDTSILPICKDSLGWMFNKLDMNYDLLLDPSEINAIYLDKYEPCIKPLFNSCDSFKDGKLSNNEWCYCFQKPGGLPCQNEMNRIQKLSKGKSLLGAFIPRCNEEGYYKATQCHGSTGQCWCVDKYGNELAGSRKQGAVSCEEEQETSGDFGSGGSVVLLDDLEYERELGPKDKEGKLRVHTRAVTEDDEDEDDDKEDEVGYIW [SPOCK1]	-0.59	0.345
MPAPPCASCHAARAALRRPLSGQALCGACFCAAFEAEVLHTVLAGRLLPPGAVVAVGASGGKDSTVLAHVLRALAPRLGISLQLVAVDEGIGGYRDAALAAVRRQAARWELPLTVVAYEDLFGGWTMDAVARSTAGSGRSRSCCTFCGVLRRRALEEGARRVGATHIVTGHNADDMAETVLMNFLRGDAGRLARGGGLGSPGEGGALPRCRPLQFASQKEVVLYAHFRRLDYFSEECVYAPEAFRGHARDLLKRLEAARPSAVLDLVHSAERLALAPAARPPRPGACSRCGALASRALCQACALLDGLNRGRPRLAIGKGRRGLDEEATPGTPGDPARPPASKAVPTF [CTU1]	0.107	0.0895
MPGRHVSRVRALYKRVLQLHRVLPPDLKSLGDQYVKDEFRRHKTVGSDEAQRFLQEWEVYATALLQQANENRQNSTGKACFGTFLPEEKLNDFRDEQIGQLQELMQEATKPNRQFSISESMKPKF [SDHAF3]	0.106	0.134
MPKRSCPFADVAPLQLKVRVSQRELSRGVCAERYSQEVFEKTKRLLFLGAQAYLDHVWDEGCAVVHLPESPKPGPTGAPRAARGQMLIGPDGRLIRSLGQASEADPSGVASIACSSCVRAVDGKAVCGQCERALCGQCVRTCWGCGSVACTLCGLVDCSDMYEKVLCTSCAMFET [SIVA1]	-0.0737	-0.098
MPLGLKPTCSVCKTTSSSMWKKGAQGEILCHHCTGRGGAGSGGAGSGAAGGTGGSGGGGFGAATFASTSATPPQSNGGGGGKQSKQEIHRRSARLRNTKYKSAPAAEKKVSTKGKGRRHIFKLKNPIKAPESVSTIITAESIFYKGVYYQIGDVVSVIDEQDGKPYYAQIRGFIQDQYCEKSAALTWLIPTLSSPRDQFDPASYIIGPEEDLPRKMEYLEFVCHAPSEYFKSRSSPFPTVPTRPEKGYIWTHVGPTPAITIKESVANHL [GATAD1]	-0.0455	0.25
MPLPEPSEQEGESVKAGQEPSPKPGTDVIPAAPRKPREFSKLVLLTASDQDEDGVGSKPQEVHCVLSLEMAGPATLASTLQILPVEEQGGVVQPALEMPEQKCSKLDAAAPQSLEFLRTPFGGRLLVLESFLYKQEKAVGDKVYWKCRQHAELGCRGRAITRGLRATVMRGHCHAPDEQGLEARRQREKLPSLALPEGLGEPQGPEGPGGRVEEPLEGVGPWQCPEEPEPTPGLVLSKPALEEEEAPRALSLLSLPPKKRSILGLGQARPLEFLRTCYGGSFLVHESFLYKREKAVGDKVYWTCRDHALHGCRSRAITQGQRVTVMRGHCHQPDMEGLEARRQQEKAVETLQAGQDGPGSQVDTLLRGVDSLLYRRGPGPLTLTRPRPRKRAKVEDQELPTQPEAPDEHQDMDADPGGPEFLKTPLGGSFLVYESFLYRREKAAGEKVYWTCRDQARMGCRSRAITQGRRVTVMRGHCHPPDLGGLEALRQREKRPNTAQRGSPGGPEFLKTPLGGSFLVYESFLYRREKAAGEKVYWTCRDQARMGCRSRAITQGRRVMVMRRHCHPPDLGGLEALRQREHFPNLAQWDSPDPLRPLEFLRTSLGGRFLVHESFLYRKEKAAGEKVYWMCRDQARLGCRSRAITQGHRIMVMRSHCHQPDLAGLEALRQRERLPTTAQQEDPEKIQVQLCFKTCSPESQQIYGDIKDVRLDGESQ [FLYWCH1]	-0.557	0.409
MPLSSPNAAATASDMDKNSGSNSSSASSGSSKGQQPPRSASAGPAGESKPKSDGKNSSGSKRYNRKRELSYPKNESFNNQSRRSSSQKSKTFNKMPPQRGGGSSKLFSSSFNGGRRDEVAEAQRAEFSPAQFSGPKKINLNHLLNFTFEPRGQTGHFEGSGHGSWGKRNKWGHKPFNKELFLQANCQFVVSEDQDYTAHFADPDTLVNWDFVEQVRICSHEVPSCPICLYPPTAAKITRCGHIFCWACILHYLSLSEKTWSKCPICYSSVHKKDLKSVVATESHQYVVGDTITMQLMKREKGVLVALPKSKWMNVDHPIHLGDEQHSQYSKLLLASKEQVLHRVVLEEKVALEQQLAEEKHTPESCFIEAAIQELKTREEALSGLAGSRREVTGVVAALEQLVLMAPLAKESVFQPRKGVLEYLSAFDEETTEVCSLDTPSRPLALPLVEEEEAVSEPEPEGLPEACDDLELADDNLKEGTICTESSQQEPITKSGFTRLSSSPCYYFYQAEDGQHMFLHPVNVRCLVREYGSLERSPEKISATVVEIAGYSMSEDVRQRHRYLSHLPLTCEFSICELALQPPVVSKETLEMFSDDIEKRKRQRQKKAREERRRERRIEIEENKKQGKYPEVHIPLENLQQFPAFNSYTCSSDSALGPTSTEGHGALSISPLSRSPGSHADFLLTPLSPTASQGSPSFCVGSLEEDSPFPSFAQMLRVGKAKADVWPKTAPKKDENSLVPPAPVDSDGESDNSDRVPVPSFQNSFSQAIEAAFMKLDTPATSDPLSEEKGGKKRKKQKQKLLFSTSVVHTK [RNF10]	-0.172	-0.000862
MPQKDPCQKQACEIQKCLQANSYMESKCQAVIQELRKCCAQYPKGRSVVCSGFEKEEEENLTRKSASK [CMC4]	-1.4	0.221
MPSRAEDYEVLYTIGTGSYGRCQKIRRKSDGKILVWKELDYGSMTEAEKQMLVSEVNLLRELKHPNIVRYYDRIIDRTNTTLYIVMEYCEGGDLASVITKGTKERQYLDEEFVLRVMTQLTLALKECHRRSDGGHTVLHRDLKPANVFLDGKQNVKLGDFGLARILNHDTSFAKTFVGTPYYMSPEQMNRMSYNEKSDIWSLGCLLYELCALMPPFTAFSQKELAGKIREGKFRRIPYRYSDELNEIITRMLNLKDYHRPSVEEILENPLIADLVADEQRRNLERRGRQLGEPEKSQDSSPVLSELKLKEIQLQERERALKAREERLEQKEQELCVRERLAEDKLARAENLLKNYSLLKERKFLSLASNPELLNLPSSVIKKKVHFSGESKENIMRSENSESQLTSKSKCKDLKKRLHAAQLRAQALSDIEKNYQLKSRQILGMR [NEK2]	-0.123	0.191
MPSSTSPDQGDDLENCILRFSDLDLKDMSLINPSSSLKAELDGSTKKKYSFAKKKAFALFVKTKEVPTKRSFECKEKLWKCCRQLFTDQTSIHRHVATQHADEIYHQTASILKQLAVTLSTSKSLSSADEKNPLKECLPHSHDVSAWLPDISCFNPDELISGQGSEEGEVLLYYCYHDLEDPQWICAWQTALCQHLHLTGKIRIAAEGINGTVGGSKLATRLYVEVMLSFPLFKDDLCKDDFKTSKGGAHCFPELRVGVFEEIVPMGISPKKISYKKPGIHLSPGEFHKEVEKFLSQANQEQSDTILLDCRNFYESKIGRFQGCLAPDIRKFSYFPSYVDKNLELFREKRVLMYCTGGIRCERGSAYLKAKGVCKEVFQLKGGIHKYLEEFPDGFYKGKLFVFDERYALSYNSDVVSECSYCGARWDQYKLCSTPQCRQLVLTCPACQGQGFTACCVTCQDKGSRKVSGPMQDSFKEECECTARRPRIPRELLQHVRQPVSPEPGPDADEDGPVLM [TSTD2]	0.0173	-0.113
MPVQAAQWTEFLSCPICYNEFDENVHKPISLGCSHTVCKTCLNKLHRKACPFDQTAINTDIDVLPVNFALLQLVGAQVPDHQSIKLSNLGENKHYEVAKKCVEDLALYLKPLSGGKGVASLNQSALSRPMQRKLVTLVNCQLVEEEGRVRAMRAARSLGERTVTELILQHQNPQQLSANLWAAVRARGCQFLGPAMQEEALKLVLLALEDGSALSRKVLVLFVVQRLEPRFPQASKTSIGHVVQLLYRASCFKVTKRDEDSSLMQLKEEFRSYEALRREHDAQIVHIAMEAGLRISPEQWSSLLYGDLAHKSHMQSIIDKLQSPESFAKSVQELTIVLQRTGDPANLNRLRPHLELLANIDPNPDAVSPTWEQLENAMVAVKTVVHGLVDFIQNYSRKGHETPQPQPNSKYKTSMCRDLRQQGGCPRGTNCTFAHSQEELEKYRLRNKKINATVRTFPLLNKVGVNNTVTTTAGNVISVIGSTETTGKIVPSTNGISNAENSVSQLISRSTDSTLRALETVKKVGKVGANGQNAAGPSADSVTENKIGSPPKTPVSNVAATSAGPSNVGTELNSVPQKSSPFLTRVPVYPPHSENIQYFQDPRTQIPFEVPQYPQTGYYPPPPTVPAGVAPCVPRFVRSNNVPESSLPPASMPYADHYSTFSPRDRMNSSPYQPPPPQPYGPVPPVPSGMYAPVYDSRRIWRPPMYQRDDIIRSNSLPPMDVMHSSVYQTSLRERYNSLDGYYSVACQPPSEPRTTVPLPREPCGHLKTSCEEQIRRKPDQWAQYHTQKAPLVSSTLPVATQSPTPPSPLFSVDFRADFSESVSGTKFEEDHLSHYSPWSCGTIGSCINAIDSEPKDVIANSNAVLMDLDSGDVKRRVHLFETQRRTKEEDPIIPFSDGPIISKWGAISRSSRTGYHTTDPVQATASQGSATKPISVSDYVPYVNAVDSRWSSYGNEATSSAHYVERDRFIVTDLSGHRKHSSTGDLLSLELQQAKSNSLLLQREANALAMQQKWNSLDEGRHLTLNLLSKEIELRNGELQSDYTEDATDTKPDRDIELELSALDTDEPDGQSEPIEEILDIQLGISSQNDQLLNGMAVENGHPVQQHQKEPPKQKKQSLGEDHVILEEQKTILPVTSCFSQPLPVSISNASCLPITTSVSAGNLILKTHVMSEDKNDFLKPVANGKMVNS [RC3H2]	0.279	-0.128
